Target: CH848-d949 DE3 design SOSIP Env (HIV-1)
Experiment: SPR

B1: DH270 lineage intermediate I5.6 Fab (Fab, V domains shown)
VH: QVQLVQSGAEVKKPGASVKVSCKASGYTFTDYYIHWVRQAPGQGLEWMGWINPNTGRTNSAQKFQGRVTMTRDTSISTAYMELSRLRSDDTAVYYCARGGWIGLYYDSSGYPNFDYWGQGTLVTVSS
VL: QSALTQPASVSGSPGQSITISCTGTSYDVGSYNLVSWYQQHPGKAPKLMIYEVSKRPSGVSNRFSGSKSGNTASLTISGLQAEDEADYYCCSYAGSSTVVFGGGTKLTVL
- fold change in association rate (ka) against unmutated CH848-d949: 45 fold
